Results from patent US20160046728.

Target: T1, Ir-CPI (Ixodes ricinus Contact Phase Inhibitor), recombinant
T1 chain: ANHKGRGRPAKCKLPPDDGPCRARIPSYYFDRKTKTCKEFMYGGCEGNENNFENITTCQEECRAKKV

Protein | amidolytic activity on chromogenic substrate (protease:Ir-CPI 1:5) | activation of factor XI into factor XIa by factor XIIa (reconstituted system, purified factors, chromogenic substrate) | activation of prekallikrein into kallikrein by factor XIIa (reconstituted system, purified factors, chromogenic substrate)
plasmin (protein) KVYLSECKTGNGKNYRGTMSKTKNGITCQKWSSTSPHRPRFSPATHPSEGLEENYCRNPDNDPQGPWCYTTDPEKRYDYCDILECEEECMHCSGENYDGKISKTMSGLECQAWDSQSPHAHGYIPSKFPNKNLKKNYCRNPDRELRPWCFTTDPNKRWELCDIPRCTTPPPSSGPTYQCLKGTGENYRGNVAVTVSGHTCQHWSAQTPHTHNRTPENFPCKNLDENYCRNPDGKRAPWCHTTNSQVRWEYCKIPSCDSSPVSTEQLAPTAPPELTPVVQDCYHGDGQSYRGTSSTTTTGKKCQSWSSMTPHRHQKTPENYPNAGLTMNYCRNPDADKGPWCFTTDPSVRWEYCNLKKCSGTEASVVAPPPVVLLPDVETPSEEDCMFGNGKGYRGKRATTVTGTPCQDWAAQEPHRHSIFTPETNPRAGLEKNYCRNPDGDVGGPWCYTTNPRKLYDYCDVPQCAAPSFDCGKPQVEPKKCPGRVVGGCVAHPHSWPWQVSLRTRFGMHFCGGTLISPEWVLTAAHCLEKSPRPSSYKVILGAHQEVNLEPHVQEIEVSRLFLEPTRKDIALLKLSSPAVITDKVIPACLPSPNYVVADRTECFITGWGETQGTFGAGLLKEAQLPVIENKVCNRYEFLNGRVQSTELCAGHLAGGTDSCQGDSGGPLVCFEKDKYILQGVTSWGLGCARPNKPGVYVRVSRFVTWIEGVMRNN | The results obtained did not show any effect of Ir-CPI protein on the amidolytic activity of these factors | – | –
factor XIIa (protein) IPPWEAPKEHKYKAEEHTVVLTVTGEPCHFPFQYHRQLYHKCTHKGRPGPQPWCATTPNFDQDQRWGYCLEPKKVKDHCSKHSPCQKGGTCVNMPSGPHCLCPQHLTGNHCQKEKCFEPQLLRFFHKNEIWYRTEQAAVARCQCKGPDAHCQRLASQACRTNPCLHGGRCLEVEGHRLCHCPVGYTGAFCDVDTKASCYDGRGLSYRGLARTTLSGAPCQPWASEATYRNVTAEQARNWGLGGHAFCRNPDNDIRPWCFVLNRDRLSWEYCDLAQCQTPTQAAPPTPVSPRLHVPLMPAQPAPPKPQPTTRTPPQSQTPGALPAKREQPPSLTRNGPLSCGQRLRKSLSSMTRVVGGLVALRGAHPYIAALYWGHSFCAGSLIAPCWVLTAAHCLQDRPAPEDLTVVLGQERRNHSCEPCQTLAVRSYRLHEAFSPVSYQHDLALLRLQEDADGSCALLSPYVQPVCLPSGAARPSETTLCQVAGWGHQFEGAEEYASFLQEAQVPFLSLERCSAPDVHGSSILPGMLCAGFLEGGTDACQGDSGGPLVCEDQAAERRLTLQGIISWGSGCGDRNKPGVYTDVAYYLAWIREHTVS | The results obtained did not show any effect of Ir-CPI protein on the amidolytic activity of these factors | Ir-CPI inhibits ... the activation of factor XI into factor XIa by factor XIIa | Ir-CPI inhibits the activation of prekallikrein into kallikrein by factor XIIa
factor VIIa (protein) ANAFLEELRPGSLERECKEEQCSFEEAREIFKDAERTKLFWISYSDGDQCASSPCQNGGSCKDQLQSYICFCLPAFEGRNCETHKDDQLICVNENGGCEQYCSDHTGTKRSCRCHEGYSLLADGVSCTPTVEYPCGKIPILEKRNASKPQGRIVGGKVCPKGECPWQVLLLVNGAQLCGGTLINTIWVVSAAHCFDKIKNWRNLIAVLGEHDLSEHDGDEQSRRVAQVIIPSTYVPGTTNHDIALLRLHQPVVLTDHVVPLCLPERTFSERTLAFVRFSLVSGWGQLLDRGATALELMVLNVPRLMTQDCLQQSRKVGDSPNITEYMFCAGYSDGSKDSCKGDSGGPHATHYRGTWYLTGIVSWGQGCATVGHFGVYTRVSQYIEWLQKLMRSEPRPGVLLRAPFP | The results obtained did not show any effect of Ir-CPI protein on the amidolytic activity of these factors | – | –
t-PA (protein) SYQVICRDEKTQMIYQQHQSWLRPVLRSNRVEYCWCNSGRAQCHSVPVKSCSEPRCFNGGTCQQALYFSDFVCQCPEGFAGKCCEIDTRATCYEDQGISYRGTWSTAESGAECTNWNSSALAQKPYSGRRPDAIRLGLGNHNYCRNPDRDSKPWCYVFKAGKYSSEFCSTPACSEGNSDCYFGNGSAYRGTHSLTESGASCLPWNSMILIGKVYTAQNPSAQALGLGKHNYCRNPDGDAKPWCHVLKNRRLTWEYCDVPSCSTCGLRQYSQPQFRIKGGLFADIASHPWQAAIFAKHRRSPGERFLCGGILISSCWILSAAHCFQERFPPHHLTVILGRTYRVVPGEEEQKFEVEKYIVHKEFDDDTYDNDIALLQLKSDSSRCAQESSVVRTVCLPPADLQLPDWTECELSGYGKHEALSPFYSERLKEAHVRLYPSSRCTSQHLLNRTVTDNMLCAGDTRSGGPQANLHDACQGDSGGPLVCLNDGRMTLVGIISWGLGCGQKDVPGVYTKVTNYLDWIRDNMRP | The results obtained did not show any effect of Ir-CPI protein on the amidolytic activity of these factors | – | –
factor Xa (protein) chain 1: ANSFLEEMKKGHLERECMEETCSYEEAREVFEDSDKTNEFWNKYKDGDQCETSPCQNQGKCKDGLGEYTCTCLEGFEGKNCELFTRKLCSLDNGDCDQFCHEEQNSVVCSCARGYTLADNGKACIPTGPYPCGKQTLER chain 2: IVGGQECKDGECPWQALLINEENEGFCGGTILSEFYILTAAHCLYQAKRFKVRVGDRNTEQEEGGEAVHEVEVVIKHNRFTKETYDFDIAVLRLKTPITFRMNVAPACLPERDWAESTLMTQKTGIVSGFGRTHEKGRQSTRLKMLEVPYVDRNSCKLSSSFIITQNMFCAGYDTKQEDACQGDSGGPHVTRFKDTYFVTGIVSWGEGCARKGKYGIYTKVTAFLKWIDRSMKTRGLPKAKSHAPEVITSSPLK | The results obtained did not show any effect of Ir-CPI protein on the amidolytic activity of these factors | – | –
